# T1: MLBIR-Q (C-terminally truncated version of ML-IAP-BIR with the same number of amino acids as MLXBIR3 and … (human, UniProt Q96CA5 63-172))
# T1 construct: range 63-172; also called C-terminal truncated wild type; not shown: N-terminal His6-tag from the pET15b vector
# T1 sequence (looked up): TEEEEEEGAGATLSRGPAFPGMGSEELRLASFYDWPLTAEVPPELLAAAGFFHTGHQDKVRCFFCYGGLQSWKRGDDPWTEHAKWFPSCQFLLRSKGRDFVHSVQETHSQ
# T2: ML-IAP-BIR (amino acids 63-179 of accession number BIR7_HUMAN), bacterially expressed from pET15b (human, UniProt Q96CA5 63-179)
# T2 construct: range 63-179; Purified protein used in the fluorescence polarization assays; also called MLBIR; wild-type ML-IAP-BIR; not shown: N-terminal His6-tag from the pET15b vector
# T2 sequence (looked up): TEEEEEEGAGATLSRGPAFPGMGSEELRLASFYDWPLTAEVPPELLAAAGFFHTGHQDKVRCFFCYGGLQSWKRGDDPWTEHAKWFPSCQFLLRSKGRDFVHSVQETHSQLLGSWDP
# B1: MLXBIR3SG (ML-IAP chimera: ML-IAP framework with XIAP-BIR3 residues 336-348 in place of 160-179, and S150G) (other)
# chain: MGSSHHHHHHSSGLVPRGSHMLETEEEEEEGAGATLSRGPAFPGMGSEELRLASFYDWPLTAEVPPELLAAAGFFHTGHQDKVRCFFCYGGLQSWKRGDDPWTEHAKWFPGCQFLLRSKGQEYINNIHLTHSL
# notes: also called ML-IAP-BIR/XIAP-BIR3 chimera protein; His6-tagged MLXBIR3SG
# Columns and labels:
# [1] = target: ΔCARD human caspase 9 (lacking the first 138 residues) with Ala substitutions at residues 304 to 306 (human) (UniProt P55211); test: caspase-9 enzyme inhibition (Ac-LEHD-AFC hydrolysis), Ki(app); too low to measure accurately
# [2] = target: T3, 5-carboxyflourescein-conjugated AVPFAK(5-FAM)K (Hid-FAM) (5-carboxyfluorescein (5-FAM) on Lys 6); test: fluorescence polarization, BIR protein titrated onto 5 nM Hid-FAM
# T3 construct: also called HID-FAM probe; Hid-based 5-carboxyfluorescein-labeled peptide
# Method: Polarization experiments were performed on an Analyst™ HT 96-384 (Molecular Devices Corp.). […] The reactions were read after an incubation time of 10 minutes at room temperature with standard cut-off filters for the fluorescein fluorophore (λₑₓ=485 nm; λₑₘ=530 nm) in 96-well black HE96 plates (Molecular Devices Corp.). Fluorescence polarization values were plotted as a function of the protein concentration, and the EC₅₀ values were obtained by fitting the data to a 4-parameter equation using Kaleidagraph™ software (Synergy software, Reading, Pa.). The apparent Kd values were determined from the EC₅₀ values.
# [3] = target: T4, XIAP-BIR3 (third BIR of XIAP, residues 252-348) (human, UniProt P98170 252-348); test: fluorescence polarization competition against Hid-FAM probe
# T4 construct: range 252-348; No tags are stated; also called XIAP-BIR3 protein
# Method: (§1) Samples were read after a 10-minute incubation. Fluorescence polarization values were plotted as a function of the antagonist concentration, and the IC₅₀ values were obtained by fitting the data to a 4-parameter equation using Kaleidagraph™ software (Synergy software, Reading, Pa.). Inhibition constants (Kᵢ) for the antagonists were determined from the IC₅₀ values (Keating et al., (2000) Putting the pieces together: contribution of fluorescence polarization assays to small-molecule lead optimization. Proceedings of SPIE: In-Vitro Diagnostic Instrumentation.).
# [4] = target: B1; test: as above
# Method: as §1
# [5] = target: T1, MLBIR-Q (C-terminally truncated version …); test: as above
# Method: as §1
# [6] = target: T2, ML-IAP-BIR (amino acids 63-179 of …); test: as above
# Method: as §1
# [7] = target: ΔCARD human caspase 9 (lacking the first 138 residues) with Ala substitutions at residues 304 to 306 (human) (UniProt P55211); test: caspase-9 enzyme inhibition
# [8] = target: B1; test: TR-FRET competition against biotinylated Smac peptide AVPIAQK-biotin on His6-tagged MLXBIR3SG
# Method: Time-Resolved Fluorescence Resonance Energy Transfer (TR-FRET) competition experiments (Kolb et al., (1996) J. Biomol. Screening 1 (4): 203-210) were performed on the Wallac Victor2 Multilabeled Counter Reader™ (Perkin Elmer Life and Analytical Sciences, Inc.). […] Alternatively, this cocktail can be made using optimized concentrations of europium-labeled anti-His₆ antibody (Perkin Elmer) instead of the anti-His₆ antibody-allophycocyanin conjugate, and streptavidin-allophycocyanin conjugate (Perkin Elmer) instead of europium-labeled streptavidin. The reagent cocktail was incubated at room temperature for 30 minutes. […] After a 90 minute incubation at room temperature, the fluorescence was read with filters for the excitation of europium (340 nm) and for the emission wavelengths of europium (615 nm) and allophycocyanin (665 nm). Data are calculated as a ratio of the emission signal of allophycocyanin at 665 nm to the emission signal of europium at 615 nm (these ratios are multiplied by a factor of 10,000 for ease of data manipulation). The resulting values were plotted as a function of antagonist concentration and fit to a 4-parameter equation using Kaleidagraph™ software (Synergy Software, Reading, Pa.). Indications of antagonist potency were determined from the IC₅₀ values.
# ΔCARD human caspase 9 (lacking the first 138 residues) with Ala substitutions at residues 304 to 306 (human), sequence (P55211 139-416, stated change not applied): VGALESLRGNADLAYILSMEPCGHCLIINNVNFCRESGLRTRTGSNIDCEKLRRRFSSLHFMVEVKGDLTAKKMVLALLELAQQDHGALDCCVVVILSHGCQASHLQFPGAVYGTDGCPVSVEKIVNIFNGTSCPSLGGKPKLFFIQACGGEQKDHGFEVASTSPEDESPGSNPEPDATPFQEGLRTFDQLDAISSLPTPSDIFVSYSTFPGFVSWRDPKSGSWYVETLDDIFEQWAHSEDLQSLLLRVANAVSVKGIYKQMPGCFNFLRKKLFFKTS
# T4 sequence (P98170 252-348 limits assumed): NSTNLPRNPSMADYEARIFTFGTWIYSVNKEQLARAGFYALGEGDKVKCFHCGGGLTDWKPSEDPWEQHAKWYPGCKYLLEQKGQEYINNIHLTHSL
binder,measurement,setting,value
B1,Ki,[1],< 0.001 µM
same,Kd,[2],0.03 µM
"wild-type mature Smac protein (amino acids 56-239 of Smac/DIABLO, C-terminal His6 fusion) (other, human, UniProt Q9NR28 56-239, looked up, range 56-239; not shown: C-terminal His6 fusion from pet21b+) AVPIAQKSEPHSLSSEALMRRAVSLVTDSTSTFLSQTTYALIEAITEYTKAVYTLTSLYRQYTSLLGKMNSEEEDEVWQVIIGARAEMTSKHQEYLKLETTWMTAVGLSEMAAEAAYQTGADQASITARNHIQLVKLQVEEVHQLSRKAETKLAEAQIEELRQKTQEEGEERAESEQEAYLRED",Ki,[3],0.32 µM
same,Ki,[4],0.059 µM
same,Ki,[5],0.054 µM
same,Ki,[6],0.026 µM
"full-length ML-IAP plus a N-terminal His6-tag (protein, human, UniProt Q96CA5 1-298, looked up, not shown: small tags and cut ends) MGPKDSAKCLHRGPQPSHWAAGDGPTQERCGPRSLGSPVLGLDTCRAWDHVDGQILGQLRPLTEEEEEEGAGATLSRGPAFPGMGSEELRLASFYDWPLTAEVPPELLAAAGFFHTGHQDKVRCFFCYGGLQSWKRGDDPWTEHAKWFPSCQFLLRSKGRDFVHSVQETHSQLLGSWDPWEEPEDAAPVAPSVPASGYPELPTPRREVQSESAQEPGGVSPAEAQRAWWVLEPPGARDVEAQLRRLQEERTCKVCLDRAVSIVFVPCGHLVCAECAPGLQLCPICRAPVRSRVRTFLS",fold lower potency for inhibition of caspase-9 activity relative to XIAP,[7],300 fold
AVPW (also called AVPW (Hid)) [AVPW peptide],IC50,[8],0.15 µM

# From US20060246471A1 (published 2006)
